Columns and labels:
[1] = target: soluble human FcRn (complex of FcRn extracellular domain and β2-microglobulin) (human) (UniProt P55899); assay: SPR (Biacore 3000), antibody captured on Protein L or anti-human kappa antibody, human FcRn as analyte, pH 6.0, steady state affinity
[2] = target: soluble human FcRn (complex of FcRn extracellular domain and β2-microglobulin) (human) (UniProt P55899); assay: as above; remark: listed apart in the source
[3] = target: recombinant soluble human IL-6 receptor (SR344) (human) (UniProt P08887); assay: SPR (Biacore T100), antibody captured on anti-IgG (γ-chain specific) F(ab')2, SR344 as analyte, pH 7.4, 37° C.
Sequence of recombinant soluble human IL-6 receptor (SR344) (human) (P08887 20-344): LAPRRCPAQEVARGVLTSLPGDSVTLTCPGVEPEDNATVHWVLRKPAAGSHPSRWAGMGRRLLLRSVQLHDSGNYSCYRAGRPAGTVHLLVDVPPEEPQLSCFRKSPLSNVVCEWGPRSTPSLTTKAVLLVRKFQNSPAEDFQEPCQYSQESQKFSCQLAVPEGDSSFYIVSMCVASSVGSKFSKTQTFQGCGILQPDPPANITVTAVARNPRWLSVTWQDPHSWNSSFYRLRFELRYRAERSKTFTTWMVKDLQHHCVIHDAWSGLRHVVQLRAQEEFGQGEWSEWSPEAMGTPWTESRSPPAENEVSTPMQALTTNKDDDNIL

[4] = target: soluble human FcRn (complex of FcRn extracellular domain and β2-microglobulin) (human) (UniProt P55899); assay: SPR (Biacore 3000), method of Example 6: captured antibody, human FcRn as analyte, pH 6.0, steady state affinity

Kd [1]: 2070 nM | Kd [2]: 1620 nM | Kd [3]: 2.7 nM | koff [3]: 0.0011 s⁻¹ | kon [3]: 400000 M⁻¹ s⁻¹ | Kd [4]: 1420 nM
Substance: WT-IgG1 (humanized PM-1 antibody, TOCILIZUMAB; humanized anti-human IL-6 receptor IgG1 antibody)

Source: patent publication US20100298542A1
